Test results: publication PMC6525205, “Structure of the human frataxin-bound iron-sulfur cluster assembly complex provides insight into its activation mechanism” (Nature Communications, 2019)
Residue numbers refer to the chain shown, from its start. In names and notes the source's numbering stands.

Target: T1, NFS1-ISD11-ACP-ISCU complex with biotinylated ISCU (SDAUb) (human | E. coli, UniProt Q9Y697 56-457; Q9HD34 1-91; P0A6A8 1-74; Q9H1K1 35-167, pyridoxal 5′-phosphate covalently-linked to Lys258 | 4′-phosphopantetheine (4′-PP) acyl-chain attached to Ser37 | biotin (site and method not stated))
T1 construct: NFS1 cysteine desulfurase, human, Δ1-55; C-terminal residue printed as His457; ISD11/LYRM4, human; E. coli acyl carrier protein (ACPec), endogenous in the expression host, co-purified; ISCU scaffold protein, human, isoform 1, Δ1-34; the related SDAUF complex holds two copies of each chain; source: purified SDA (E. coli) combined with biotinylated ISCU (E. coli) and isolated on Superdex 200 …
T1 sequence (Q9Y697 56-457, chain 1 of 4): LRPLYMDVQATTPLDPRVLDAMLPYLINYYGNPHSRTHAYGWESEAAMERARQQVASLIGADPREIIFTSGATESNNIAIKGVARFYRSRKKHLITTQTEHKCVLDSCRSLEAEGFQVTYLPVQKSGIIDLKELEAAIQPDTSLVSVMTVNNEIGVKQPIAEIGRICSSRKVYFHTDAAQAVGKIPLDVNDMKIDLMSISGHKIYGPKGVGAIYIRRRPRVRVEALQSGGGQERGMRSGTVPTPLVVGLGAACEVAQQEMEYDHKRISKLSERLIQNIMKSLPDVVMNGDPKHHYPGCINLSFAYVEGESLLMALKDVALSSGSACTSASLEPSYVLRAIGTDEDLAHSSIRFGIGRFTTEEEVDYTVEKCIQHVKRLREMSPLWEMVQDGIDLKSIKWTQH
T1 sequence (Q9HD34 whole entry, chain 2 of 4, canonical isoform): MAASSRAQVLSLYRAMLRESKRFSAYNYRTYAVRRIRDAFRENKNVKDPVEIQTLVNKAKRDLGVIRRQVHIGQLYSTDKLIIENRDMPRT
T1 sequence (P0A6A8 1-74, chain 3 of 4): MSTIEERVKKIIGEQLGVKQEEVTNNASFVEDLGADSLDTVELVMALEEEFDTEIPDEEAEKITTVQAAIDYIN
T1 sequence (Q9H1K1 35-167, chain 4 of 4): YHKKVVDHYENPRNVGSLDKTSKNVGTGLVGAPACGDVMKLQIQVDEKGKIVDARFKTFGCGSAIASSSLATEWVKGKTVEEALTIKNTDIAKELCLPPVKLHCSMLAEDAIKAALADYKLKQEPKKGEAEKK
Experiment: BLI; SDAUb complex (biotinylated ISCU) at 0.1 mg/mL loaded on streptavidin sensors; FXN 500 µM to 1 nM in solution; 25 °C; 50 mM HEPES pH 7.5, 200 mM NaCl, 5% glycerol, 2 mM TCEP, 5 mM DTT, 0.5 mg/mL BSA; Kd from response vs. [FXN], one site-specific binding fit
Settings: both partners purified

B1: human frataxin (FXN) (Δ1-80), wild-type (domain or fragment, UniProt Q16595 81-210, looked up)
chain: SGTLGHPGSLDETTYERLAEETLDSLAEFFEDLADKPYTFEDYDVSFGSGVLTVKLGGDLGTYVINKQTPNKQIWLSSPSSGPKRYDWTGKNWVYSHDGVSLHELLAAELTKALKTKLDLSSLAYSGKDA
notes: frataxin (FXN), human, Δ1-80; Cloned into pCDF-LIC-Bsa4; Two copies of FXN stand in the SDAUF heterodecamer; also called FXN(WT); WT; source: E. coli BL21(DE3)-R3-pRARE2, purified (Ni Sepharose, Superdex S75, TEV, reverse Ni); for cryo-EM co-expressed with the His-ISD11/NFS1/ISCU plasmid and purified as the SDAUF complex
**Q.** Which Kd does the source give for B1 here?
**A.** Its Kd is 3.32 µM.

B2: FXN(P163G) (domain or fragment, human, UniProt Q16595 81-210, looked up)
chain: B1 chain with P83G
notes: frataxin (FXN), human, Δ1-80, site-directed variant (Gly is the bacterial equivalent residue); Variant of m1
**Q.** How did the Kd turn out when B2 was run?
**A.** The Kd was 38.5 µM.

B3: FXN(N146K) (domain or fragment, human, UniProt Q16595 81-210, looked up)
chain: B1 chain with N66K
notes: frataxin (FXN), human, Δ1-80, clinical variant of Friedreich's ataxia; Variant of m1
**Q.** B3 was tested. Which Kd did it give?
**A.** Its Kd is 177 µM.

B4: FXN(W155R) (domain or fragment, human, UniProt Q16595 81-210, looked up)
chain: B1 chain with W75R
notes: as for B3
**Q.** For B4, which Kd is on record?
**A.** The Kd was 253 µM.

B5: FXN(D124A) (domain or fragment, human, UniProt Q16595 81-210, looked up)
chain: B1 chain with D44A
notes: frataxin (FXN), human, Δ1-80, site-directed variant; Variant of m1
**Q.** For B5, which Kd is on record?
**A.** The Kd was 14.4 µM.

B6: FXN(N151A) (domain or fragment, human, UniProt Q16595 81-210, looked up)
chain: B1 chain with N71A
notes: as for B5
**Q.** With B6 as the binder, how does the Kd read?
**A.** The Kd was 9.45 µM.

B7: FXN(R165C) (domain or fragment, human, UniProt Q16595 81-210, looked up)
chain: B1 chain with R85C
notes: as for B3
**Q.** How did the Kd turn out when B7 was run?
**A.** The Kd was 134 µM.
